# Changes are numbered by the printed parent chain.
# T1: 5T4 on A498 cells (UniProt Q13641 32-420, limits assumed)
# T1 construct: whole, on cells; also called 5T4-expressing A498 cells; A-498 kidney carcinoma (5T4)
# T1 sequence (looked up): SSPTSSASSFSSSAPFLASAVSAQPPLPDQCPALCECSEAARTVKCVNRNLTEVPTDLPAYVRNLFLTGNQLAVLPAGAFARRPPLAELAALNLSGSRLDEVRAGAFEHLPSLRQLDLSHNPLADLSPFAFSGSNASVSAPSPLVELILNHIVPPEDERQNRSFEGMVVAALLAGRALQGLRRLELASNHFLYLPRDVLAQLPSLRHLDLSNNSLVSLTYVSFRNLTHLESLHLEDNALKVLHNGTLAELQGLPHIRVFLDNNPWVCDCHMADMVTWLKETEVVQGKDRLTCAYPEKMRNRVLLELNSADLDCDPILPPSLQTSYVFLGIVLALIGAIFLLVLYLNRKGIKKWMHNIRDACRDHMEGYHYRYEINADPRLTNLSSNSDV
# B1: DART-A-M23 (bispecific antibody)
# chain 1: DFVMTQSPDSLAVSLGERVTMSCKSSQSLLNSGNQKNYLTWYQQKPGQPPKLLIYWASTRESGVPDRFSGSGSGTDFTLTISSLQAEDVAVYYCQNDYSYPYTFGQGTKLEIKGGGSGGGGEVQLVESGGGLVQPGGSLRLSCAASGFTFSTYAMNWVRQAPGKGLEWVGRIRSKYNNYATYYADSVKDRFTISRDDSKNSLYLQMNSLKTEDTAVYYCVRHGNFGNSYVSWFAYWGQGTLVTVSSGGCGGGKVAALKEKVAALKEKVAALKEKVAALKE
# chain 2: QAVVTQEPSLTVSPGGTVTLTCRSSTGAVTTSNYANWVQQKPGQAPRGLIGGTNKRAPWTPARFSGSLLGGKAALTITGAQAEDEADYYCAEWYSNLWVFGGGTKLTVLGGGGSGGGGEVQLVQSGAELKKPGASVKVSCKASGYTFTDYYMKWVRQAPGQGLEWIGDIIPSNGATFYNQKFKGRVTITVDKSTSTAYMELSSLRSEDTAVYYCARSHLLRASWFAYWGQGTLVTVSSGGCGGGEVAALEKEVAALEKEVAALEKEVAALEK
# notes: also called CD123 x CD3 DART-A-type diabody with CD3 mAb 1 M23
# B2: DART-A-M25 (bispecific antibody)
# chain 1: B1 chain 1
# chain 2: B1 chain 2 with G52D, E92L
# notes: also called CD123 x CD3 DART-A-type diabody with CD3 mAb 1 M25
# B3: DART-A-M26 (bispecific antibody)
# chain 1: B1 chain 1
# chain 2: B1 chain 2 with K55G, E92L
# notes: also called CD123 x CD3 DART-A-type diabody with CD3 mAb 1 M26
# B4: DART-A-WT (bispecific antibody)
# chain 1: B1 chain 1
# chain 2: B1 chain 2 with E92L
# notes: Two-chain diabody without Fc; Kabat position 65 of the CD3 VH is D; also called CD3 Mab-1; Wild-Type
# B5: DART-A-M24 (bispecific antibody)
# chain 1: B1 chain 1
# chain 2: B1 chain 2 with E92Q
# notes: also called CD123 x CD3 DART-A-type diabody with CD3 mAb 1 M24
# B6: 5T4-WT (bispecific antibody)
# chain 1: DIQMTQSPSSLSASVGDRVTITCRASQGISNYLAWFQQKPGKAPKSLIYRANRLQSGVPSRFSGSGSGTDFTLTISSLQPEDVATYYCLQYDDFPWTFGQGTKLEIKGGGSGGGGEVQLVESGGGLVQPGGSLRLSCAASGFTFSTYAMNWVRQAPGKGLEWVGRIRSKYNNYATYYADSVKGRFTISRDDSKNSLYLQMNSLKTEDTAVYYCVRHGNFGNSYVSWFAYWGQGTLVTVSSGGCGGGEVAALEKEVAALEKEVAALEKEVAALEKGGGDKTHTCPPCPAPEAAGGPSVFLFPPKPKDTLMISRTPEVTCVVVDVSHEDPEVKFNWYVDGVEVHNAKTKPREEQYNSTYRVVSVLTVLHQDWLNGKEYKCKVSNKALPAPIEKTISKAKGQPREPQVYTLPPSREEMTKNQVSLWCLVKGFYPSDIAVEWESNGQPENNYKTTPPVLDSDGSFFLYSKLTVDKSRWQQGNVFSCSVMHEALHNHYTQKSLSLSPGK
# chain 2: QAVVTQEPSLTVSPGGTVTLTCRSSTGAVTTSNYANWVQQKPGQAPRGLIGGTNKRAPWTPARFSGSLLGGKAALTITGAQAEDEADYYCALWYSNLWVFGGGTKLTVLGGGGSGGGGQVQLVQSGAEVKKPGASVKVSCKASGYTFTSFWMHWVRQAPGQGLEWMGRIDPNRGGTEYNEKAKSRVTMTADKSTSTAYMELSSLRSEDTAVYYCAGGNPYYPMDYWGQGTTVTVSSGGCGGGKVAALKEKVAALKEKVAALKEKVAALKE
# chain 3: not shown
# notes: Three-chain diabody with Fc; Kabat position 65 of the CD3 VH is G in this construct; also called 5T4 x CD3 mAb 1 DART-B-type diabody
# B7: 5T4-M1 (bispecific antibody)
# chain 1: B6 chain 1 with G183D, S225T
# chain 2: B6 chain 2
# chain 3: not shown
# notes: Three-chain diabody with Fc; also called 5T4 x CD3 mAb 1 M1 DART-B-type diabody
# B8: 5T4-M2 (bispecific antibody)
# chain 1: B6 chain 1 with G183D, G217K, S225T
# chain 2: B6 chain 2
# chain 3: not shown
# notes: Three-chain diabody with Fc; also called 5T4 x CD3 mAb 1 M2 DART-B-type diabody
# B9: 5T4-M18 (bispecific antibody)
# chain 1: B6 chain 1 with A148G, G183D
# chain 2: B6 chain 2
# chain 3: not shown
# notes: Three-chain diabody with Fc; also called 5T4 x CD3 mAb 1 M18 DART-B-type diabody
# Assays:
# CD3 on T-cells = CD3 on T-cells (UniProt P07766 23-207); assay: cell-based or functional assay
# Sequence of CD3 on T-cells (P07766 23-207): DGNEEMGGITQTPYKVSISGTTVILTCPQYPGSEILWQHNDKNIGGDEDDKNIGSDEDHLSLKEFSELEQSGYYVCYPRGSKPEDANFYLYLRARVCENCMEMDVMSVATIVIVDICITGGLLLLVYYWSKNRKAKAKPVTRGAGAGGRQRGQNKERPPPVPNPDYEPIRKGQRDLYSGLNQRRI
# [1] = molecular target: T2, CD3 (as used for the BIACORE kinetics of Table 11) (UniProt P07766 23-126); assay: SPR (BIACORE)
# T2 construct: CD3 mAb 1 is described as an anti-human CD3 antibody
# T2 sequence (P07766 23-126): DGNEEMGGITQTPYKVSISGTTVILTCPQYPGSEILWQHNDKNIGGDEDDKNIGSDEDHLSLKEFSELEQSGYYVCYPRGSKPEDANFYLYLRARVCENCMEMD
# Protocol: Variants of the CD123×CD3 DART-A-type diabody (designated DART-A-WT; amino acid sequences provided above) were generated comprising the VH and VL Domains of the identified scFvs. Thus, a panel of DART-A-type diabodies, designated DART-A-M1-DART-A-M26, comprising vCD3-Binding Domains (such vCD3-Binding Domains being respectively designated “CD3 mAb 1 M1-CD3 mAb 1 M26”) were generated. The CD3-binding kinetics of DART-A-M1-DART-A-M26 were measured by BIACORE® and compared to DART-A-WT. Table 11 summarizes the CD3-binding kinetics of DART-A-WT and the DART-A-type diabodies comprising the vCD3-Binding Domains of CD3 mAb 1 M1-CD3 mAb 1 M26, ranked by kₐ (R denotes kₐ, kd, or kD ratio of variant DART-A-type diabody (comprising a vCD3-Binding Domain) to DART-A-WT (comprising the rCD3-Binding Domain of CD3 mAb 1)).
# soluble human CD3 = soluble human CD3 (human, UniProt P07766 23-126); assay: SPR (BIAcore), diabody over immobilized human CD3
# Sequence of soluble human CD3 (P07766 23-126): as above
# Protocol: The ability of the CD123-binding diabodies: CD123-WT, CD123-M1, CD123-M2 and CD123-M18 to bind to human CD3 and CD123 was also evaluated using BIAcore®. […] Table 14 presents the calculated kₐ, kd and KD from these studies.
# The ability of the 5T4-binding diabodies: 5T4-WT, 5T4-M1, 5T4-M2 and 5T4-M18 to bind to CD3 was also evaluated using BIAcore®, as described above. Table 15A presents the calculated kₐ, kd and KD.
# 5T4 on A498 cells = molecular target: T1, 5T4 on A498 cells; assay: Flow cytometry on A498 cells; detection with biotinylated anti-E/K-coil antibody and streptavidin-PE
# Protocol: FIG. 9A-9B show the ability of DART-B-type diabodies to bind to Disease Antigens. […] Binding was detected using biotinylated antibody specific for the diabodies' E/K coils and streptavidin-phycoerythrin (PE).
# The ability of such diabodies to bind to their respective Disease Antigen (i.e., CD123 or 5T4) on the surface of MOLM-13 leukemia (CD123) or A-498 kidney carcinoma (5T4) target cancer cells was assessed using FACS. Briefly, cells were incubated with the diabody molecules (in FACS buffer containing 10% human AB serum) in microtiter plates. The cells were washed and incubated with biotin-conjugated mouse anti-EK-coil antibody that recognizes the E-coil/K-coil (EK) Heterodimer-Promoting Domain of the diabodies mixed with streptavidin-phycoerythrin.
Binder,"EC50 of cytolysis at 18 hours (CTL assay, Pan-T-cells and MOLM-13, E:T = 5:1) (CD3 on T-cells) [ng/mL]","EC50 of cytolysis at 42 hours (CTL assay, Pan-T-cells and MOLM-13, E:T = 5:1) (CD3 on T-cells) [ng/mL]","R: ratio of 18 hour EC50 to DART-A-WT (CTL assay, Pan-T-cells and MOLM-13, E:T = 5:1) (CD3 on T-cells) [ratio]","R: ratio of 42 hour EC50 to DART-A-WT (CTL assay, Pan-T-cells and MOLM-13, E:T = 5:1) (CD3 on T-cells) [ratio]","max % CytoTox at 18 hours (CTL assay, Pan-T-cells and MOLM-13, E:T = 5:1) (CD3 on T-cells) [%]","max % CytoTox at 42 hours (CTL assay, Pan-T-cells and MOLM-13, E:T = 5:1) (CD3 on T-cells) [%]",Kd [1] [nM],R (KD ratio to DART-A-WT) [1],R (ka ratio to DART-A-WT) [1],R (kd ratio to DART-A-WT) [1],koff [1] [s⁻¹],kon [1] [M⁻¹ s⁻¹],Kd (soluble human CD3) [nM],koff (soluble human CD3) [s⁻¹],kon (soluble human CD3) [M⁻¹ s⁻¹],EC50 (read off the curve) (5T4 on A498 cells) [nM]
B1,0.421,0.061,5.3,21.6,49.3,31.4,26.9,3.3,0.9,3,0.0124,459000,,,,
B2,0.585,0.1,7.4,35.7,46.6,30.4,125,15,0.3,4.7,0.0192,154000,,,,
B3,0.444,0.078,5.6,27.9,44.2,28.2,54.4,6.7,0.6,4.3,0.0174,319000,,,,
B4,0.079,0.003,1,1,39,29.1,8.17,1,1,1,0.00409,500000,,,,
B5,0.34,0.031,4.3,11.1,49.4,31.1,14.5,1.8,1.2,2.1,0.00861,594000,,,,
B6,,,,,,,,,,,,,36,0.0054,150000,~1
B7,,,,,,,,,,,,,326,0.031,95000,~1
B8,,,,,,,,,,,,,118,0.041,350000,~1
B9,,,,,,,,,,,,,453,0.034,75000,~1

# From patent US20240043537A1 (MacroGenics, published 2024)
